# Tested on: N.BstNBI nicking endonuclease
# Assay: cleavage_in_vitro
# Details: duplex 2; repeat 9a 21.3
row,Sequence,activity (relative mass units)
1,CCTACGACTGGAACAATAAAACCTACGACTGGA / TCCAGTCGTAGGTGAGTCTGTTCCAGTCGTAGG [Duplex 2/9a T-1/B-2 5 mismatches],18.5

# Same assay, conditions: duplex 7; repeat 8a 23.4
row,Sequence,activity (relative mass units)
1,CCTACGACTGGAACAGTAACACCTACGACTGGA / TCCAGTCGTAGGTGAGTCTGTTCCAGTCGTAGG [Duplex 7/8a T-1/B-7 3 mismatches],21.2

# Same assay, conditions: duplex 9f; 9k printed with same T strand gave 22.6
row,Sequence,activity (relative mass units)
1,CCTACGACTGGAACAATAAAACCTACGACTGGA / TCGTAGGTGAGTCTGTTCCAGTCGTAGG [Duplex 9f/9k T-1f/B-2],15.9

# Same assay, conditions: duplex 9g; 9l printed with same strands gave 22.5
row,Sequence,activity (relative mass units)
1,CCTACGACTGGAACAATAAAACCTACGACTGGA / CGTAGGTGAGTCTGTTCCAGTCGTAGG [Duplex 9g/9l T-1g/B-2],28.3

# Same assay, conditions: nicking coupled to Vent exo- extension, LC/MS of released fragment, Mg2+, trehalose, 60 C 1 h
row,Sequence,activity (relative mass units)
1,CCTACGACTGGAACAGACTCACCTACGACTGGA (double strand) [Duplex 1 T-1/B-1 perfect],121

# Same assay, conditions: same conditions
row,Sequence,activity (relative mass units)
1,CCTACGACTGGAACAATAAAACCTACGACTGGA / AGGTGAGTCTGTTCCAGTCGTAGG [Duplex 9j T-1j/B-2],21.4
2,CCTACGACTGGAACAATAAAACCTACGACTGGA / AGTCGTAGGTGAGTCTGTTCCAGTCGTAGG [Duplex 9d T-1d/B-2],15.3
3,CCTACGACTGGAACAATAAAACCTACGACTGGA / CAGTCGTAGGTGAGTCTGTTCCAGTCGTAGG [Duplex 9c T-1c/B-2],19.2
4,CCTACGACTGGAACAATAAAACCTACGACTGGA / CCAGTCGTAGGTGAGTCTGTTCCAGTCGTAGG [Duplex 9b T-1b/B-2],17.8
5,CCTACGACTGGAACAATAAAACCTACGACTGGA / GAGTCTGTTCCAGTCGTAGG [Duplex 9n T-1n/B-2],14.3
6,CCTACGACTGGAACAATAAAACCTACGACTGGA / GTAGGTGAGTCTGTTCCAGTCGTAGG [Duplex 9h T-1h/B-2],22.7
7,CCTACGACTGGAACAATAAAACCTACGACTGGA / GTCGTAGGTGAGTCTGTTCCAGTCGTAGG [Duplex 9e T-1e/B-2],14
8,CCTACGACTGGAACAATAAAACCTACGACTGGA / TAGGTGAGTCTGTTCCAGTCGTAGG [Duplex 9i T-1i/B-2],23.9
9,CCTACGACTGGAACAATAAAACCTACGACTGGA / TGAGTCTGTTCCAGTCGTAGG [Duplex 9m T-1m/B-2],13.5
10,CCTACGACTGGAACAGAAACACCTACGACTGGA / TCCAGTCGTAGGTGAGTCTGTTCCAGTCGTAGG [Duplex 6 T-1/B-6 2 mismatches],45
11,CCTACGACTGGAACAGACACACCTACGACTGGA / TCCAGTCGTAGGTGAGTCTGTTCCAGTCGTAGG [Duplex 4 T-1/B-4 1 mismatch],61.5
12,CCTACGACTGGAACAGATTCACCTACGACTGGA / TCCAGTCGTAGGTGAGTCTGTTCCAGTCGTAGG [Duplex 3 T-1/B-3 1 mismatch],66.7
13,CCTACGACTGGAACAGTAACACCTACGACTGGA / AGGTGAGTCTGTTCCAGTCGTAGG [Duplex 8j T-1j/B-7],18.3
14,CCTACGACTGGAACAGTAACACCTACGACTGGA / AGTCGTAGGTGAGTCTGTTCCAGTCGTAGG [Duplex 8d T-1d/B-7],29.2
15,CCTACGACTGGAACAGTAACACCTACGACTGGA / CAGTCGTAGGTGAGTCTGTTCCAGTCGTAGG [Duplex 8c T-1c/B-7],11.5
16,CCTACGACTGGAACAGTAACACCTACGACTGGA / CCAGTCGTAGGTGAGTCTGTTCCAGTCGTAGG [Duplex 8b T-1b/B-7],28.3
17,CCTACGACTGGAACAGTAACACCTACGACTGGA / CGTAGGTGAGTCTGTTCCAGTCGTAGG [Duplex 8g T-1g/B-7],20.8
18,CCTACGACTGGAACAGTAACACCTACGACTGGA / GAGTCTGTTCCAGTCGTAGG [Duplex 8n T-1n/B-7],12.5
19,CCTACGACTGGAACAGTAACACCTACGACTGGA / GGTGAGTCTGTTCCAGTCGTAGG [Duplex 8k T-1k/B-7],19.3
20,CCTACGACTGGAACAGTAACACCTACGACTGGA / GTAGGTGAGTCTGTTCCAGTCGTAGG [Duplex 8h T-1h/B-7],12.3
21,CCTACGACTGGAACAGTAACACCTACGACTGGA / GTCGTAGGTGAGTCTGTTCCAGTCGTAGG [Duplex 8e T-1e/B-7],14.6
22,CCTACGACTGGAACAGTAACACCTACGACTGGA / GTGAGTCTGTTCCAGTCGTAGG [Duplex 8l T-1l/B-7],15.6
23,CCTACGACTGGAACAGTAACACCTACGACTGGA / TAGGTGAGTCTGTTCCAGTCGTAGG [Duplex 8i T-1i/B-7],14.9
24,CCTACGACTGGAACAGTAACACCTACGACTGGA / TCGTAGGTGAGTCTGTTCCAGTCGTAGG [Duplex 8f T-1f/B-7],17.8
25,CCTACGACTGGAACAGTAACACCTACGACTGGA / TGAGTCTGTTCCAGTCGTAGG [Duplex 8m T-1m/B-7],18.3
26,CCTACGACTGGAACAGTCTCACCTACGACTGGA / TCCAGTCGTAGGTGAGTCTGTTCCAGTCGTAGG [Duplex 5 T-1/B-5 1 mismatch],63
